In patent US20210340225A1:

Biological target: recombinantly expressed RBD ([change] domain) of bat sarbecovirus WIV16 (bat SARS-like coronavirus WIV16)

“47D11 fully human IgG1 monoclonal antibody” gave an EC50 (read off the curve) of 0.09 µg/mL.
